Source: publication PMC10120478
Substitutions are numbered along the chain they refer to.

Columns and labels:
[1] = biological target: T1, MgrA (Staphylococcus aureus XN108) (UniProt P0C1S0); assay: EMSA; conditions: EMSA: 20 mM Hepes pH 7.6, 1 mM EDTA, 10 mM (NH4)2SO4, 30 mM KCl, 1 mM DTT, 0.2% (w/v) Tween-20, 10 uL, room temperature 1 min; 4% native PAGE
T1 sequence: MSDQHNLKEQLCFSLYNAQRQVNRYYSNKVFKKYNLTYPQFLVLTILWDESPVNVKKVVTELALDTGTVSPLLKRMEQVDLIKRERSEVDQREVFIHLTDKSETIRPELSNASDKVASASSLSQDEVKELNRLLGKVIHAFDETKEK

[2] = biological target: T2, MgrA C12S C12S (Staphylococcus aureus XN108 mgrAC12S mutant) (UniProt P0C1S0); assay: EMSA; conditions: EMSA: 20 mM Hepes pH 7.6, 1 mM EDTA, 10 mM (NH4)2SO4, 30 mM KCl, 1 mM DTT, 0.2% (w/v) Tween-20, 10 uL, room temperature 1 min; 4% native PAGE
T2 sequence: T1 sequence with C12S

Row | Sequence | binding [1] | binding [2]
1 | GTCACACTCCATGCCATTGAGTTGTAATATATCTTTTTTAGGTATAAATGTTGTCGAATAAACAACAAGTTGTCCAAAAGATATAAATCTAAACAAGATATAGCCAGCAATTTAATATTTGTAATAGATAAAATGCTAAGTTTGATATATAATAAATTTAAGTAATTGTATAATAATATGAATTACAAACATCTAAGAAGAAACATAGGAGGCATCA (double strand) [psarV (sarV promoter probe)] | binds | binds more weakly
2 | GTTCGACATACCCAATGCCAAAAACATACCTATTGAAATTGACAAAATTCCAATACTAACTTTTCTAATTGAATAGCGTACTTTACTTTGTTGTTTATTCATGATGAAACACTCCTTACAATAATATACAAACATTATAACATAGTGCGCTATATATTTTAATTAAAATTTTCTTTGTTTTATAAAGCTATTGTAGGAGGTAAAATAATTAACTTGTCTTTCCAAAATATGAAAAGTGTACTAAAATTCATCGCACGACAAATAGCCCATTTCCGATACTT (double strand) [plytN (lytN promoter probe)] | binds | binds more weakly
